This is an account of results in EP1870467A1 (UNIVERSITY COLLEGE LONDON, dated 2007).

The series deals with the molecule itself. Put plainly: western blot, band at about 120kD read as a homodimer. Background: A western blot detects proteins with antibodies after separation by electrophoresis.

B1: full length MEPE (phosphatonin) expressed in an insect cell line and excreted into the medium (ligand)
chain: PTFQPQTEKTKQSCVEEQRQEEKNKDNIGFHHLGKRINQELSSKENIVQERKKDLSLSEASENKGSSKSQNYFTNRQRLNKEYSISNKENTHNGLRMSIYPKSTGNKGFEDGDDAISKLHDQEEYGAALIRNNMQHIMGPVTAIKLLGEENKENTPRNVLNIIPASMNYAKAHSKDKKKPQRDSQAQKSPVKSKSTHRIQHNIDYLKHLSKVKKIPSDFEGSGYTDLQERGDNDISPFSGDGQPFKDIPGKGEATGPDLEGKDIQTGFAGPSEAESTHLDTKKPGYNEIPEREENGGNTIGTRDETAKEADAVDVSLVEGSNDIMGSTNFKELPGREGNRVDAGSQNAHQGKVEFHYPPAPSKEKRKEGSSDAAESTNYNEIPKNGKGSTRKGVDHSNRNQATLNEKQRFPSKGKSQGLPIPSRGLDNEIKNEMDSFNGPSHENIITHGRKYHYVPHRQNNSTRNKGMPQGKGSWGRQPHSNRRFSSRRRDDSSESSDSGSSSESDGD
notes: Secreted into insect cell medium; also called full length phosphatonin; Bac-1
With B1, the binding result is on record as “binds”.
